Square brackets hold non-standard residues; d marks the D form. Ends that are not written are not given here. KΨPR = pseudopeptide unit Lys-Ψ(CH2-N)-Pro-Arg; Aib = CC(C)(N)C(=O)O
Biological target: surface nucleolin on human cells (human, UniProt P19338 2-710)
Assay: cell-based or functional assay

surface nucleolin on human cells, sequence (P19338 2-710): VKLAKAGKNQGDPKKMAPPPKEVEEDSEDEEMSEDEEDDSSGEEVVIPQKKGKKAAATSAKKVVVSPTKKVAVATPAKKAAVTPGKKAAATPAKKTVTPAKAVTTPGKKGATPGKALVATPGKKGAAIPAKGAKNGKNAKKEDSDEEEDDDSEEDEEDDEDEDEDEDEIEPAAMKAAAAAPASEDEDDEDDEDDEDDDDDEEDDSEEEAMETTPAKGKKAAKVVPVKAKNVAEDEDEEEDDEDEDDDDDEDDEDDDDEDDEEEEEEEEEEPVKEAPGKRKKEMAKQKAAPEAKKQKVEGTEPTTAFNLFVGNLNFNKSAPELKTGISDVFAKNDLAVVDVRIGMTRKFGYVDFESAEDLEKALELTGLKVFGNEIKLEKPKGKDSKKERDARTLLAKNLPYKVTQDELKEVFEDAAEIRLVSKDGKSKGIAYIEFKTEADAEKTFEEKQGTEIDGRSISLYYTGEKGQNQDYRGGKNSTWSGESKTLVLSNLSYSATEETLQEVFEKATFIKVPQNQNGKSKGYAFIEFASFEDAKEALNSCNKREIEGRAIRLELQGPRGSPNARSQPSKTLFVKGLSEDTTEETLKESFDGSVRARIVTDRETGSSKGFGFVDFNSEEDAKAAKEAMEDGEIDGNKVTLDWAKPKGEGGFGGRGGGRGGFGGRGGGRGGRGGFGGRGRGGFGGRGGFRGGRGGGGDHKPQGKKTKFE

B1: hexavalent compound Nucant 6 (peptide)
chain: Ac-K(KΨPR)[Aib]GK(KΨPR)[Aib]GK(KΨPR)[Aib]GK(KΨPR)[Aib]GK(KΨPR)[Aib]GK(KΨPR)[Aib]G-NH2
peptide: Lys-Pro-Arg
modifications: also: chain 2 is the KΨPR unit, one copy bound via its C-terminus as amide on the ε-amine of each of the 6 Lys of chain 1, reduced bond Ψ(CH2-N) between K and P of chain 2
- ID50 (Inhibitory Dose at 50%) of surface nucleolin activity in HeLa P4 cells: < 0.1 µM
